Results published in the nanobody polyreactivity screen of Harvey et al. (2022).

Test: yeast display, Sf9 membrane polyspecificity reagent, FACS + sequencing; frameworks hold sequencing errors
Outline: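 Galactose-induced (36–48 hours) yeast carrying a synthetic nanobody display library were exposed to 10% biotinylated, detergent-solubilized Sf9 membrane reagent at 4 °C for 1 hour. FACS followed streptavidin microbead enrichment, using low and high (top ~1%) gates for expression (anti-HA) and reagent binding (streptavidin). Colony PCR, MiSeq 2 × 250 sequencing and CDR-length filtering followed. Labels for polyreactivity reflect the gate of origin.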

Sequence | polyreactivity (PSR sort gate)
QVQLVESGGGLVQAGGSLRLSCAASGLIFKRNAMGWYRQAPGKERELVATISGSGGSTYYADSVKGRFTISRDNAKNTFYLQMNSLKPEDTAVYYCAAEASSVSYPYEYEYWGQGTQVTVSS | high polyreactivity
QVQLVESGGGLVQAGGSLRLSCAASGLIFKSYAMGWYRQAPGKERELVAAISSGGTTYYADSVKGRFTISRDNAKNTVYLQMNSLKPEDTAVYYCAAYFKQPVEPCEYWGQGTQVTVSS | high polyreactivity
QVQLVESGGGLVQAGGSLRLSCAASGLIFKTYTMGWYRQAPGKEREFVAAITTSGGSTYYADSVKGRFTISRDNAKNTVYLQMNSLKPEDTAVYYCAAVWWKSFQGSSYRMNYWGQGTQVTVSS | high polyreactivity
QVQLVESGGGLVQAGGSLRLSCAASGLIFLDYAMGWYRQAPGKERELVAAISRSGGRTYYADSVKGRFTISRDNAKNTVYLQMNSLKPEDTAVYYCAADGSRKSEIYDYWGQGTQVTVSS | high polyreactivity
QVQLVESGGGLVQAGGSLRLSCAASGLIFLTYARGWYRQAPGKERELVATISGSTGGTYYADSVKGRFTISRDNAKNTVYLQMNSLKPEDTAVYYCNASVFQSEYDYWGQGTQVTVSS | low polyreactivity
QVQLVESGGGLVQAGGSLRLSCAASGLIFLYAMGWYRQAPGKERELVAAISNGGSTYYADSVKGRFTISRDNAKNTVYLQMYSLKPEDTAVYYCAVYYPGKYGYWGQGTQVTVSS | high polyreactivity
QVQLVESGGGLVQAGGSLRLSCAASGLIFLYYAMGWNRQAPGKERELVAAIRTNYADSVKGRFTISRDNAKNTVYLQMNSLKPEDTPVYYCAAESCQTPTSAFDYWGQGTQVTVSS | low polyreactivity
QVQLVESGGGLVQAGGSLRLSCAASGLIFLYYAMGWYRQAPGKERELVAAISRRGGSTYYADSVKGRFTISRDNAKNTVYLQMNSLKPEDTAVDYCAANYESYPRGIWTYYYWGQGTQVTVSS | high polyreactivity
QVQLVESGGGLVQAGGSLRLSCAASGLIFNLNAMGWYSPAPGKEREFVATITGIGGSTYYADSVKGRFTISRDNAKNTVYLQMNSLKPEDTAVYYCAADAWFVPYNYWGQGTQVTVSS | low polyreactivity
QVQLVESGGGLVQAGGSLRLSCAASGLIFPIYAMGWYRPAPGKERELVAVITWSGGSTYYADSVKGRFTISRDNAKNTVYLQMNSLKPEDTAVYYCSVEWAYPYWYTYYLEDYWGQGTQVTVSS | low polyreactivity
QVQLVESGGGLVQAGGSLRLSCAASGLIFPIYAMGWYRQAPGKERELVAVITWSGGSTYYADSVKGRFTISRDNAKNTVYLQMNSLKPEDTAVYYCAVEWAYPYWYTYYLEDYWGQGTQVTVSS | low polyreactivity
QVQLVESGGGLVQAGGSLRLSCAASGLIFPLYDMGWYIQAPGKDRELVAAITWGGGGTYYADSVKGRFTISRDNAKNTVYLQMNSLKPEDTAVYYCNADSDIAAPLRTYITFDYWGQGTQVTVSS | low polyreactivity
QVQLVESGGGLVQAGGSLRLSCAASGLIFPPNVMGWYRQAPGKDRELVAAITSSGSTNYADSVTGRFTISRDNAKNTVYLQMNSLKPEDTAVYYCARDQTWSYQPWYYLSYTQYEYWGQGNQVTVSS | low polyreactivity
QVQLVESGGGLVQAGGSLRLSCAASGLIFPRYAMGWYRQAPGKERELVAAISSGGSTNYADSVKGRFTISRDNAKNTVYLQMNSLKPEDTAVYYCAASSYYYRFSRWPYYHRYYWGQGTQVTVSS | low polyreactivity
QVQLVESGGGLVQAGGSLRLSCAASGLIFPRYGMGGYRPAPGKERELVAAITRGGSTYYADSVKGRFTISRDNAKNTVYLQMNSLKPEDTAVYYCIAELPVHWSWYDYWGHGTQVTVSS | low polyreactivity
QVQLVESGGGLVQAGGSLRLSCAASGLIFPRYGMVWYRKAPGKERELVAAISWSGGSTYYADSVKGRFTISRDNAKNTVYLQMNSLKPEDTAVYYCAVLSNRGVYGSDYWGQGTQVTVSS | high polyreactivity
QVQLVESGGGLVQAGGSLRLSCAASGLIFPSYTMGWYRQAPGKERELVAAITFSGDSTNYADSVKGRFTISRDNAKNTVYLQMNSLKPEDTAVYYCAASQVSDTTRFGYWGQGTQVTVSS | low polyreactivity
QVQLVESGGGLVQAGGSLRLSCAASGLIFPVYAMGWYRQAPGKDREFVASIWRGGTTYYADSVKGRFTISRDNAKNTVYLQMNSLKPEDTAVYYCAAVVYSRGYYWGQGTQVTVSS | high polyreactivity
QVQLVESGGGLVQAGGSLRLSCAASGLIFPYNAMGWYRQAPGKERELVAAIDTRGSSTYYADSVKGRFTISRDNAKNTVYLQMNSLKPEDTAVYYCAADYRVQLRKEYDYWGQGTQVTVSS | high polyreactivity
QVQLVESGGGLVQAGGSLRLSCAASGLIFPYYAMGWYRQAPGKERELVAAISYRGSRTYYADSVKGRFTISRDNAKNTVYLQMNSLKPEDTAVYYCIAGVSGRDNYWGQGTQVNVSS | high polyreactivity
QVQLVESGGGLVQAGGSLRLSCAASGLIFQVYTMGWYRQAPGKERELVAAISWDAGSTYYADSVKGRFTISRDNAKNTVYLQMNSLKPEDTAVYYCAAKRKIRGYGPYEYWGQGTQVTVSS | high polyreactivity
QVQLVESGGGLVQAGGSLRLSCAASGLIFRAYAMGWSRPAPGKERELVAAITSSSGSTYYADSVKGRFTISRDNAKNTVYLQMNSLTPEDTAVYYCNAYSTFGWYDYWGQGTQVTVSS | low polyreactivity

Sequence | polyreactivity (PSR sort gate)
QVQLVESGGGLVQAGGSLRLSCAASGLIFRHYAMGWYRQAPGKERELVAAIDYSGGSTYYADSVKGRFTISRDNAKNTVYLQMNSLKPEDTAVYYCAADYFWLYYSEYGYWGQGTQVTVSS | low polyreactivity
QVQLVESGGGLVQAGGSLRLSCAASGLIFRHYAMGWYRQSPGKEREFVAAITWSGGSTYYADSVKGRFTISRDNAKNTVYLQMNSLKPEDTAVYYCAAEGPGYGPTGDFYWYTYYYWGQGSQVTVSS | low polyreactivity
QVQLVESGGGLVQAGGSLRLSCAASGLIFRPYTMGWYRQAPGKERELVATISGSGASTNYADSVKGRFTISRDNAKNTVYLQMNSLKPEDTAVYYCKGRSYSRMYYWGQGTQVTVSS | high polyreactivity
QVQLVESGGGLVQAGGSLRLSCAASGLIFRRYAMGWYRQAPGKERELVAAITSSGGSTYYADSVKGRFTISRDNAKNTVYLQMNSLKPEDTAVYYCNAYYTGRSAPDSWGQGTQVTVSS | high polyreactivity
QVQLVESGGGLVQAGGSLRLSCAASGLIFRRYAMGWYRQAPGKERELVATINSGGSTNYADSVKGRFTISRDNAKNTVYLQMNSLKPEDTAVYYCAAKKFRRFTKWYDYWGQGTQVTVSS | high polyreactivity
QVQLVESGGGLVQAGGSLRLSCAASGLIFRSNAMGWYRQAPGKERELVAAISRNGQSTYYADSVKGRFTISRDNAKYTVYLQMNSLKPEDTAVFYCAARSRDKYDYWGQGTEVTVSS | high polyreactivity
QVQLVESGGGLVQAGGSLRLSCAASGLIFRVNAMGWYRQAPGKERELVADINSGGGTSYADSVKGRFTISRDNAKNTVYLQMNSLKPEDTAVYYCAAAWWPYSYPTYYSQYDYWGQGTQVTVSS | low polyreactivity
QVQLVESGGGLVQAGGSLRLSCAASGLIFRVYAMGRYRQAPGKERELVATITRGGRTYYADSVKGRFTISRDNAKNTVYLQMNSLKPEDTAVYYCAVLSVRRSYNYWGQGTQVTVSS | high polyreactivity
QVQLVESGGGLVQAGGSLRLSCAASGLIFRWYAMGWYRQAPGKERELVAAISRRGGNTYYADSVKGRFTISRDNAKNTVYLQMNSLKPEDTAVYYCAASPIRSQGNDYWGQGTQVNVSS | high polyreactivity
QVQLVESGGGLVQAGGSLRLSCAASGLIFRWYAMGWYRQAPGKETELVAAINYSGGRTYYADSVKGRFTISRDNAKNTVYLQMNSLKPEDTAVYYCNAVAVPSTYDYWGQGTQVTVSS | low polyreactivity
QVQLVESGGGLVQAGGSLRLSCAASGLIFRWYAMGWYRTAPGKERELVAAISRRGGTTNYADSVKGRFTISRDNAKNTVYLQMNSLKPDDTAVYYCAADYQSVGGAEYDYWGQGTQVTVSS | high polyreactivity
QVQLVESGGGLVQAGGSLRLSCAASGLIFRYYAMGWYRQAPGKERELVASISWHGGSTNYADSVKGRFTISRDNAKNTVYLQMNSLKPEDTAVYYCAADAWVATTILHDYWGQGTQVTVSS | high polyreactivity
QVQLVESGGGLVQAGGSLRLSCAASGLIFRYYSMGWYRQAPGKERELVAAISWTGGSTYYADSVKGRFTISRDNAKYTVYLQLNSLKPEDTAVYYCIAGQWRYPGLYYYWGQGTQVTVSS | high polyreactivity
QVQLVESGGGLVQAGGSLRLSCAASGLIFSEYAMGWSRQAPGKETELVADIRSDGGSTYYADSVKGRFTISRDNAKNTVYLQINSLKPEDTAVYYCNAPYRRSAKFRRYGYDYWGQGTQVTVSS | high polyreactivity
QVQLVESGGGLVQAGGSLRLSCAASGLIFSNNAMGWYRQAPGKERELVAAISKSGGGTSYADSVKGRFTISRDNAKNTVYLQMNSLKPEDTAVYYCAARFRQFRVDYWGQGTQVTVSS | high polyreactivity
QVQLVESGGGLVQAGGSLRLSCAASGLIFSRNAMGWYRQAPGKERELVAAISGGGGSTYYADSVKGRFTISRDNAKNTVYLQMNSLKPEATAVYYCAAKGYWWLTPWIATYDYWGQGTQVTVSS | high polyreactivity
QVQLVESGGGLVQAGGSLRLSCAASGLIFSRYAMGWYRQAPGKERELVAAITWRGGSTYYADSVKGRFTISRDNAKNTVYLQMNSLKPEDTAVYYCNADGLWFQGYNSWGQGTQVTVSS | low polyreactivity
QVQLVESGGGLVQAGGSLRLSCAASGLIFSVYAMGWYRKAPGKERELVAAITGGGSTHYADSVKGRFTISRDNAKNTVYLQMNSLKPEDTAVYYCATRSYSWLHYWTSRGDEDYWGQGTQVTVSS | high polyreactivity
QVQLVESGGGLVQAGGSLRLSCAASGLIFSVYAMGWYRQAPGKERELVAAISWSGSTYYADSVKGRFTISRDNAKNTVYLQMNSLKPEDTAVDYCAAEYDYDHFYWMDYWGQGTQVTVSS | high polyreactivity
QVQLVESGGGLVQAGGSLRLSCAASGLIFSVYAMGWYRQAPGKVRELVAAITGSGGRTYYADSVKGRFTISRDNAKNYVYLQMNSLKPEDTAVYYCAATVSSYPYYRYYSWGQGTQVTVSS | high polyreactivity
QVQLVESGGGLVQAGGSLRLSCAASGLIFSWYDMGWYRQAPGKERELVAAITTDGDDTYYADSVKGRFTISRDNAKNTVYLQMNSLKPEDTAVYYCAADSELAIRYPDRDYDSWGQGTQVTVSS | low polyreactivity
